Measurements from patent US20030091983A1.

Molecular target: synthetic HA 11 A-beta (1-40) peptide (human)
Experiment: sandwich ELISA, anti-HA 11 capture, detection with position 1 or position 40 antibodies

mAB anti-HA 11 (BABCO) (antibody) was tested, and the peptide concentration at which the ELISA signal approached saturation was 10 ng/mL.
